Results on twelve substances are retold here after patent US7481993B2, “Chelators for radioactively labeled conjugates comprising a stabilizing sidechain” (Schering AG, priority 2005, dated 2009).

Where “and” joins values, the source holds several entries; their conditions need not be identical. Equal values may be shown once. * marks the point of attachment. Mercaptoacetyl = O=C(CS)*; Bz = O=C(c1ccccc1)*

The data set is described as follows: Cysteine challenge stability of ^99mTc chelator peptides. The data set is classed as physicochemical. As for the experimental part:
For the ^99mTc radiolabeling, a peptide as the TFA salt was dissolved in saline at 1 mg/mL and 100 μg (100 μL) was added to a ^99mTc placebo vial. The vial was reconstituted with 0.9 mL technetium ^99mTc sodium pertechnetate containing approximately 20 mCi and saline such that the final preparation volume was 1.1 mL. The vial was heated in a boiling water bath for 10 minutes and cooled at room temperature for 10 minutes.
The radiochemical purity (RCP) of the ^99mTc or ^188Re peptides was measured by gradient reversed phase HPLC using a Eurosphere-100 C18 HPLC column and 0.1% TFA mobile phases moderated with acetonitrile. Radioactive components were detected in the HPLC system using an in-line radiometric detector. Under the gradient conditions employed radiolabeled impurities (for example: ^99mTc glucoheptonate, ^99mTc edetate, and ^99mTc pertechnetate) eluted early (between 1 and 4 minutes), while the radiolabeled peptides eluted much later (between 8 and 20 minutes). In general, two isomeric radiometal complexes were observed, and the HPLC RCP was measured as the sum of the percent areas of the peaks corresponding to the two complexes. Radiochemical purity results for each of compounds are summarized in the examples that follow.
To ^99mTc radiolabelled peptide preparations described in Example 3 was added 150 μg of cysteine (approximately a 7-fold molar excess over peptide), and the preparations were stored at room temperature and monitored by HPLC for up to 12 hours. The amount of ^99mTc cysteine formed over time was noted. The initial HPLC analysis was started within 5 minutes of adding cysteine. In all cysteine challenge studies, a chelator compound containing a stabilizing sidechain was screened vs. the corresponding control chelator compound containing no sidechain. The relative amount of ^99mTc cysteine formed over time correlates inversely with the stability of the chelator (ie. less ^99mTc cysteine indicates higher chelator stability).
Several model chelator peptides were prepared with an N^1—N^2-Cys (N^1, N^2=independently any amino acid) amino acid sequence capable of complexing technetium as a triamide thiol chelator. Various stabilizing sidechains were substituted into the N^1—N^2-Cys chelator in two positions R1 and R2 as depicted in FIG. 4. The compounds were screened in the cysteine challenge experiment described in Example 4. Several experiments were conducted where 1-2 chelators were compared directly to a control chelator containing no stabilizing sidechain (compound GoC1 was also analyzed alone in a further study). Results in Table 5 represent % Peptide complexed to ^99mTc (ie. 100%−the amount of ^99mTc cysteine) vs. time.
Several model chelator peptides were prepared with an (β)Dap-N^2-Cys (N^2=any amino acid) amino acid sequence capable of complexing technetium as an amine diamide thiol chelator. This chelator is the chelator in the somatostatin peptides that were evaluated in Examples 5 and 6. Various stabilizing sidechains were substituted into the (β)Dap-N^2-Cys chelator in two positions R3 and R4 as depicted in FIG. 5. The compounds were screened in the cysteine challenge experiment described in Example 4. Several experiments were conducted where 1-2 chelators were compared directly to a control chelator containing no stabilizing sidechain. Results in Table 6 are the same as described in Example 7.
Two model chelator peptides were prepared with a ma-N^1—N^2 (Ma=mercaptoacetyl; N^1, N^2=independently any amino acid) amino acid sequence capable of complexing technetium as a triamide thiol chelator. This chelator has the thiol donor group at the N-terminus of the peptide. A stabilizing sidechain was substituted into the ma-N^1—N^2 chelator in position R5 as depicted in FIG. 6. The compounds were radiolabeled according to Example 3 with the exception that additional NaOH was added to bring the pH of the preparation up to pH 8.5. […]

Setting [1] is: N1-N2-Cys triamide thiol chelators, 150 μg cysteine, room temperature, Initial (within 5 minutes).
Setting [2] is: N1-N2-Cys triamide thiol chelators, cysteine challenge.
[3] abbreviates: (β)Dap-N2-Cys amine diamide thiol chelators, cysteine challenge.
Setting [4] is: (β)Dap-N2-Cys amine diamide thiol chelators, cysteine challenge, Initial.
The mark [5] stands for this setting: Ma-N1-N2 triamide thiol chelators, preparation pH 8.5, cysteine challenge.
[6] abbreviates: Ma-N1-N2 triamide thiol chelators, preparation pH 8.5, cysteine challenge, Initial.
The mark [7] stands for this setting: (β)Dap-N2-Cys amine diamide thiol chelators, cysteine challenge, listed as Dap.GC.

As to “Ac-Tyr-Gly-Gly-Gly-Cys-Ala.amide (Ac-YGGGCA-NH2) [GGC2, control chelator, no stabilizing sidechain]”, the “% Peptide Complexed to ^99mTc Initial” value under setting [1] was 90.1% and 92.0% and 95.7% and 93.6%. Further, under setting [2], the “% Peptide Complexed to ^99mTc 2 h” value was 70.7% and 80.7% and 79.3% and 81.0% and 77.8%; the “% Peptide Complexed to ^99mTc 4 h” value is 61.8% and 72.0% and 70.5% and 73.3% and 67.5%; the “% Peptide Complexed to ^99mTc 6 h” value is 57.1% and 65.7% and 65.6% and 61.0% and 60.4%; the “% Peptide Complexed to ^99mTc 8 h” value was 46.2% and 61.0% and 57.8% and 53.0% and 54.7%. In addition, under setting [2], the “% Peptide Complexed to ^99mTc 10 h” value was 39.1% and 59.0% and 55.1% and 48.0% and 50.2%; the “% Peptide Complexed to ^99mTc 12 h” value is 33.3% and 57.2% and 44.5% and 41.2% and 46.6%.
For “Bz-Gly-(β)Dap-Met-Cys-Ala.amide [Dap.MC]”, under setting [3], the “% Peptide Complexed to ^99mTc 2 h” value is recorded as 95.4%, the “% Peptide Complexed to ^99mTc 4 h” value is recorded as 89.8%, the “% Peptide Complexed to ^99mTc 6 h” value was 92.6% and the “% Peptide Complexed to ^99mTc 8 h” value worked out at 91.6%. Under setting [3], the “% Peptide Complexed to ^99mTc 10 h” value came out at 88.4% and the “% Peptide Complexed to ^99mTc 12 h” value is reported as 89.7%. Also, the “% Peptide Complexed to ^99mTc Initial” value under setting [4] is 97.4%.
Take “Ac-Tyr-Gly-Gly-His-Cys-Ala.amide (Ac-YGGHCA-NH2)”: under setting [1], the “% Peptide Complexed to ^99mTc Initial” value is listed as 78.8%. Also, under setting [2], the “% Peptide Complexed to ^99mTc 2 h” value is 74.3%, the “% Peptide Complexed to ^99mTc 4 h” value was 72.9%, the “% Peptide Complexed to ^99mTc 6 h” value was 70.9% and the “% Peptide Complexed to ^99mTc 8 h” value came out at 68.8%. Moreover, under setting [2], the “% Peptide Complexed to ^99mTc 10 h” value is on record as 69.2% and the “% Peptide Complexed to ^99mTc 12 h” value was 67.9%.
Take “Ma-Gly-Gly-Tyr-Ala.amide (Mercaptoacetyl-GGYA-NH2; SMILES C[C@H](NC(=O)[C@H](Cc1ccc(O)cc1)NC(=O)CNC(=O)CNC(=O)CS)C(N)=O) [Ma.GG, control chelator, no stabilizing sidechain]”: under setting [5], the “% Peptide Complexed to ^99mTc 2 h” value was 91.3%, the “% Peptide Complexed to ^99mTc 4 h” value was 75.7%, the “% Peptide Complexed to ^99mTc 6 h” value is recorded as 61.2% and the “% Peptide Complexed to ^99mTc 8 h” value was 48.7%. For the same substance, under setting [5], the “% Peptide Complexed to ^99mTc 10 h” value is reported as 42.2% and the “% Peptide Complexed to ^99mTc 12 h” value is on record as 32.7%. Besides, the “% Peptide Complexed to ^99mTc Initial” value under setting [6] was determined as 100%.
As for “Ac-Tyr-Gly-Met-Gly-Cys-Ala.amide (Ac-YGMGCA-NH2)”, the “% Peptide Complexed to ^99mTc Initial” value under setting [1] is on record as 93.9%. Under setting [2], the “% Peptide Complexed to ^99mTc 2 h” value was 92.4%, the “% Peptide Complexed to ^99mTc 4 h” value was 89.3%, the “% Peptide Complexed to ^99mTc 6 h” value amounted to 85.9% and the “% Peptide Complexed to ^99mTc 8 h” value stood at 82.0%. Further, under setting [2], the “% Peptide Complexed to ^99mTc 10 h” value stood at 79.9% and the “% Peptide Complexed to ^99mTc 12 h” value amounted to 77.2%.
Take “Ac-Tyr-Gly-(β)Dap(COCH2CH2NH2)-Gly-Cys-Ala.amide [Dap-Y.GC]”: under setting [3], the “% Peptide Complexed to ^99mTc 2 h” value was determined as 84.6%, the “% Peptide Complexed to ^99mTc 4 h” value is recorded as 84.1%, the “% Peptide Complexed to ^99mTc 6 h” value stood at 82.9% and the “% Peptide Complexed to ^99mTc 8 h” value was found to be 80.7%. Besides, under setting [3], the “% Peptide Complexed to ^99mTc 10 h” value was 80.0% and the “% Peptide Complexed to ^99mTc 12 h” value turned out to be 77.2%. The “% Peptide Complexed to ^99mTc Initial” value under setting [4] is on record as 93.7%.
For the substance “Bz-Gly-(β)Dap-Gly-Cys-Ala.amide [Dap.GC1]”, under setting [3], the “% Peptide Complexed to ^99mTc 2 h” value was determined as 78.1%, the “% Peptide Complexed to ^99mTc 4 h” value worked out at 62.7%, the “% Peptide Complexed to ^99mTc 6 h” value amounted to 57.8% and the “% Peptide Complexed to ^99mTc 8 h” value stood at 51.9%. Under setting [3], the “% Peptide Complexed to ^99mTc 10 h” value is on record as 46.2% and the “% Peptide Complexed to ^99mTc 12 h” value was 43.3%. Besides, under setting [7], the “% Peptide Complexed to ^99mTc 2 h” value is 78.9%, the “% Peptide Complexed to ^99mTc 4 h” value is given as 42.6%, the “% Peptide Complexed to ^99mTc 6 h” value was 51.6% and the “% Peptide Complexed to ^99mTc 8 h” value is listed as 46.3%. In addition, under setting [7], the “% Peptide Complexed to ^99mTc 12 h” value is 37.6%. Also, the “% Peptide Complexed to ^99mTc Initial” value under setting [4] stood at 81.7%.
As to “Ac-Tyr-Gly-Glu-Gly-Cys-Ala.amide (Ac-YGEGCA-NH2)”, the “% Peptide Complexed to ^99mTc Initial” value under setting [1] is reported as 91.4%. For the same substance, under setting [2], the “% Peptide Complexed to ^99mTc 2 h” value was 84.1%, the “% Peptide Complexed to ^99mTc 4 h” value turned out to be 78.1%, the “% Peptide Complexed to ^99mTc 6 h” value came out at 73.3% and the “% Peptide Complexed to ^99mTc 8 h” value was found to be 67.4%. The “% Peptide Complexed to ^99mTc 10 h” value under setting [2] came to 60.1%.
Take “Bz-Gly-Gly-Met-Cys-Ala.amide (Bz-GGMCA-NH2; SMILES CSCC[C@H](NC(=O)CNC(=O)CNC(=O)c1ccccc1)C(=O)N[C@@H](CS)C(=O)N[C@@H](C)C(N)=O)”: the “% Peptide Complexed to ^99mTc Initial” value under setting [1] is reported as 96.9%. Under setting [2], the “% Peptide Complexed to ^99mTc 2 h” value was 92.6%, the “% Peptide Complexed to ^99mTc 4 h” value came out at 88.6%, the “% Peptide Complexed to ^99mTc 6 h” value turned out to be 83.7% and the “% Peptide Complexed to ^99mTc 8 h” value turned out to be 82.7%. Besides, under setting [2], the “% Peptide Complexed to ^99mTc 10 h” value is 78.6% and the “% Peptide Complexed to ^99mTc 12 h” value worked out at 77.2%.
“Ac-Tyr-Gly-Gln-Gly-Cys-Ala.amide (Ac-YGQGCA-NH2)”: the “% Peptide Complexed to ^99mTc Initial” value under setting [1] is 92.9% and 96.3%. Under setting [2], the “% Peptide Complexed to ^99mTc 2 h” value was 88.7% and 88.3%; the “% Peptide Complexed to ^99mTc 4 h” value is 88.8% and 86.1%; the “% Peptide Complexed to ^99mTc 6 h” value was 86.6% and 84.0%; the “% Peptide Complexed to ^99mTc 8 h” value is 85.6% and 82.0%. Further, under setting [2], the “% Peptide Complexed to ^99mTc 10 h” value is 83.8% and 77.6%; the “% Peptide Complexed to ^99mTc 12 h” value is 84.2% and 75.9%.
Turning to “Bz-Gly-Gly-Gln-Cys-Ala.amide (Bz-GGQCA-NH2; SMILES C[C@H](NC(=O)[C@H](CS)NC(=O)[C@H](CCC(N)=O)NC(=O)CNC(=O)CNC(=O)c1ccccc1)C(N)=O)”, under setting [1], the “% Peptide Complexed to ^99mTc Initial” value worked out at 97.8%. Moreover, under setting [2], the “% Peptide Complexed to ^99mTc 2 h” value amounted to 93.2%, the “% Peptide Complexed to ^99mTc 4 h” value is given as 88.7%, the “% Peptide Complexed to ^99mTc 6 h” value came to 82.4% and the “% Peptide Complexed to ^99mTc 8 h” value is 80.1%. For the same substance, under setting [2], the “% Peptide Complexed to ^99mTc 10 h” value came to 78.7% and the “% Peptide Complexed to ^99mTc 12 h” value was found to be 73.5%.
For the substance Ma-(D)Orn-Gly-Tyr-Ala.amide [Ma.oC], under setting [5], the “% Peptide Complexed to ^99mTc 2 h” value worked out at 87.4%, the “% Peptide Complexed to ^99mTc 4 h” value is given as 87.2%, the “% Peptide Complexed to ^99mTc 6 h” value came out at 84.9% and the “% Peptide Complexed to ^99mTc 8 h” value was found to be 85.9%. For the same substance, under setting [5], the “% Peptide Complexed to ^99mTc 10 h” value worked out at 84.1% and the “% Peptide Complexed to ^99mTc 12 h” value was found to be 82.7%. Moreover, the “% Peptide Complexed to ^99mTc Initial” value under setting [6] worked out at 100%.
